From patent US10590182B2, “Binding-triggered transcriptional switches and methods of use thereof” (The Regents of the University of California, priority 2015, dated 2020)

B1: soluble TRAIL: recombinant TRAIL, an inducer of apoptosis and a cancer therapeutic (protein, UniProt P50591 39-281, looked up)
extracellular domain: TNELKQMQDKYSKSGIACFLKEDDSYWDPNDEESMNSPCWQVKWQLRQLVRKMILRTSEETISTVQEKQQNISPLVRERGPQRVAAHITGTRGRSNTLSSPNSKNEKALGRKINSWESSRSGHSFLSNLHLRNGELVIHEKGFYYIYSQTYFRFQEEIKENTKNDKQMVQYIYKYTSYPDPILLMKSARNSCWSKDAEYGLYSIYQGGIFELKENDRIFVSVTNEHLIDMDHEASFFGAFLVG
modifications: extracellular domain
notes: recombinant TRAIL, an inducer of apoptosis and a cancer therapeutic

Legend:
[1] = tested on: gamma secretase; experiment: Chimeric Notch receiver cell activation by CD19 sender cells with or without gamma secretase inhibitor DAPT; type: cell-based, mouse; conditions: sender cells expressing CD19, 1 mM DAPT
Text: DAPT is a gamma secretase inhibitor. The data are expressed as GFP^+ “receiver” cells.
(FIG. 86A) Mouse fibroblasts (L929 line) with anti-CD19/tTA synNotch are cultivated with sender cells expressing Delta, or CD19, or CD19 in the presence of the gamma-secretase inhibitor DAPT. FACS plots of the resulting GFP intensity in receiver cells are shown.

[2] = tested on: K562 cells; experiment: Sensitivity of cancer cell line to recombinant TRAIL; type: cell-based
Method: (§1) The cells were then harvested and stained with the live/dead stain, SYTOX Blue (Thermo Scientific # S34857) and the fraction of dead cells was determined by flow cytometry on a BD LSR II.

[3] = tested on: HCT116 colon cancer cells; experiment: as above; type: cell-based
Method: as §1

| Molecule | GFP+ receiver cells [1] | induction of apoptosis [2] | cell killing [3] |
| --- | --- | --- | --- |
| C[C@H](NC(=O)Cc1cc(F)cc(F)c1)C(=O)NC(C(=O)OC(C)(C)C)c1ccccc1 (stereo partly drawn) [DAPT] | at control, untreated levels | – | – |
| B1 | – | does not induce apoptosis even at high doses | effective at killing |
